In patent publication US20080241166A1:

Molecular target: hen egg lysozyme (hen) (UniProt P00698)
Experiment: ELISA on coated HEL (3 mg/ml); detection via the myc tag with 9e10 and anti mouse IgG-HRP

Sequence of hen egg lysozyme (hen) (P00698 19-147): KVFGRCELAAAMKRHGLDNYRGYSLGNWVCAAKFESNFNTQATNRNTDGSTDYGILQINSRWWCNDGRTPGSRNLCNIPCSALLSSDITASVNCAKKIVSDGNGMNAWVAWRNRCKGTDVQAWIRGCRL

B1: VHCκ chain expressed alone (TAR2-5-Cκ) (protein, not shown: small tags and cut ends)
chain: EVQLLESGGGLVQPGGSLRLSCAASGFTFDLYNMFWVRQAPGKGLEWVSFISQTGRLTWYADSVKGRFTISRDNSKNTLYLQMNSLRAEDTAVYYCAKTLEDFDYWGQGTLVTVSS
ELISA signal (background): 0.069
